Patent US20090068110A1, “ANTIBODIES TO INSULIN-LIKE GROWTH FACTOR RECEPTOR” (Genentech, Inc., priority 2006, published 2009)
Where a chain is given by its changes, count along the chain named.

Columns and labels:
[1] = molecular target: human IGF-1R-ECD (secreted recombinant extracellular domain, amino acids 1-902, tagged with 10 or 12 histidine residues at the carboxyl terminus) (human) (UniProt P08069); test: competition ELISA: antibody pre-incubated on plate-coated human IGF-1R-ECD, then biotinylated IGF-I (blocked ligand), streptavidin-HRP, A450
[2] = molecular target: human IGF-1R-ECD (secreted recombinant extracellular domain, amino acids 1-902, tagged with 10 or 12 histidine residues at the carboxyl terminus) (human) (UniProt P08069); test: solid-phase binding assay: serially diluted antibody on plate-coated human IGF-1R-ECD, then biotinylated IGF-II (blocked ligand), streptavidin-HRP, A450; n=3
[3] = molecular target: human IGF-1R-ECD (secreted recombinant extracellular domain, amino acids 1-902, tagged with 10 or 12 histidine residues at the carboxyl terminus) (human) (UniProt P08069); test: solid-phase binding assay: serially diluted antibody on plate-coated human IGF-1R-ECD, then biotinylated IGF-I (blocked ligand), streptavidin-HRP, A450; n=3
SW527 xenograft tumors = test: SW527 breast-cancer xenograft model; type: in vivo, SCID beige mice
From the text: Female nude (nu/nu) and C.B-17 SCID beige mice were obtained from Charles Rivers Laboratories, Inc. (Hollister, Calif.). Animals were about six to eight weeks old and weighed about 25 grams each. Mice were acclimated to study conditions for at least three days before tumor-cell inoculations. The animals were housed in standard rodent micro-isolator cages. Only animals that appeared to be healthy and that were free of obvious abnormalities were used for the study. Each mouse was given a subcutaneous injection of SK-N-AS cells (10 million), SW527 cells (5 million), Colo205 cells (5 million), or A549 cells (5 million) into the dorsal right flank in a volume of 0.2 mL. Data collected from each experimental group were expressed as mean tumor volume±the standard error of the mean (SEM). Tumors were monitored until they reached a mean volume of 130-260 mm3. […] Tumors were measured twice weekly throughout the experiment starting on the first day of treatment. Tumor volumes were measured in two dimensions (length and width) using ULTRA CAL-IV™ calipers (Model 54-10-111, Fred V. Fowler Company, Inc.; Newton, Mass.), and calculated using the formula of: […]
Tumor-inhibition and body-weight graphs were plotted using […]™ 3.6 software (Synergy Software; Reading, Pa.). […]
Tumor incidence was determined by the number of measurable tumors in each group. […]

cynomolgus-monkey IGF-1R = cynomolgus-monkey IGF-1R (cynomolgus monkey, UniProt G7P9I7 31-908); test: BIACORE surface plasmon resonance: IGF-1R immobilized on CM5 chip (about 500 RU), IgG injected 250-0.78 nM, 25 C, 1:1 Langmuir model (apparent affinity)
[4] = molecular target: human IGF-1R-ECD (secreted recombinant extracellular domain, amino acids 1-902, tagged with 10 or 12 histidine residues at the carboxyl terminus) (human) (UniProt P08069); test: as above
human IGF-1R-ECD = molecular target: T1, human IGF-1R-ECD (Homo sapiens, UniProt P08069); test: competitive ELISA, blocking of IGF-I/II and IGF-1R interaction; type: binding; details: antibody 100 nM to 0.0976 nM, biotinyl-IGF-I or IGF-II 60 ng/ml
T1 construct: containing the extracellular domain (ECD, amino acids 1-902) tagged with 10 or 12 histidine residues at the carboxyl terminus; His10 or His12 (C); made in house; host or cells: CHO cells
Description: To determine whether the anti-IGF-1R antibodies could block ligand/receptor interaction, competitive ELISA was utilized. Human IGF-1R-ECD was coated overnight at 4° C. at 1 μg/ml in a 96-well immunoplate (Nalge Nunc International, Rochester, N.Y., USA). The ELISA plate was washed with wash buffer (PBS, 0.05% TWEEN™ 20 surfactant, pH 7.4), and 150 μl/well of blocking buffer (PBS with 0.5% BSA) was added for one hour at room temperature with gentle agitation. Purified anti-IGF-1R antibodies were first subjected to a two-fold dilution from 100 nM to 0.0976 nM in assay buffer (PBS, 0.5% BSA and 0.05% TWEEN™ 20 surfactant, pH 7.4) and added to the immunoplate to incubate at room temperature for one hour. Biothinyl-IGF-I or IGF-II at 60 ng/ml concentrations (Cell Science, Canton, Mass., USA) was then added and incubated for another 30 minutes. The ELISA plate was washed three times, and 100 μl/well of streptavidin-HRP (GE Healthcare, Piscataway, N.J., USA) at a dilution of 1:6,000 was added for 20 minutes. Color development was conducted as described in conjunction with the direct ELISA. The selected anti-IGF-1R antibodies inhibited IGF-I or IGF-II binding to IGF-1R to various degrees (FIGS. 19A and 19B for IGF-I and IGF-II, respectively).

[5] = tested on: IGF-1R signaling (phospho-IGF-1R, AKT, ERK1/2); test: Western blotting of IGF-1R signaling in MCF7 cells; type: cell-based, human
Description: Also examined was the effect of these antibodies on ligand-dependent IGF-1R signaling by directly analyzing IGF-1R phosphorylation as well as major downstream pathways, such as AKT and MAPK activation. In this assay, MCF7 cells were grown in 6-well plates and serum was withdrawn for 16 hours. […] The cells were directly lysed in SDS sample buffer, and the lysate was analyzed by Western blotting using antibodies against IGF-1R, phospho-IGF-1R, AKT, phospho-AKT, ERK1/2, phospho-ERK1/2 (also called MAPK1/2 and phospho-MAPK1/2) (all from Cell Signaling Technology, Inc.; Beverly, Mass., USA).
For the IGF-1R signaling pathway analysis, MCF7 cells were grown in six-well plates for 24 hours and then serum starved (serum-free and phenol-free RPMI medium supplemented with 1 mg/mL BSA) overnight. The cells were first incubated with h10H5 for 20 minutes, then stimulated with 50 ng/mL IGF-1 or 100 ng/mL IGF-11 for ten minutes. Cells were directly lysed in SDS sample buffer to preserve protein phosphorylation. After brief sonication, the lysates were separated by SDS-PAGE and transferred to nitrocellulose membranes (Invitrogen; Carlsbad, Calif.), which were probed with anti-phospho-IGF-1R, AKT, and ERK1/2 antibodies. The same blots were then stripped using Stripping Buffer™ (Pierce Biotechnology; Rockford, Ill.) and re-probed with antibodies against total IGF-1R β, AKT, and ERK1/2.

IGF-1R = IGF-1R (Homo sapiens, UniProt P08069); test: KIRA assay of IGF-1R phosphorylation in MCF7 cells; type: cell-based; set-up: IGF-1R is normally localized at the plasma membrane of MCF7 cells; endogenous in cells; host or cells: MCF7; details: IGF-I 10 ng/ml or IGF-II 50 ng/ml; ranking upon IGF-II stimulation
Description: Also examined was whether the blocking activity of these antibodies was sufficient to interfere with receptor activation, which is measured by IGF-1R phosphorylation. A KIRA assay (kinase receptor activation) was utilized to perform quantitative analysis of IGF-1R phosphorylation in MCF7 cells. Anti-IGF-1R antibodies in serial dilutions (0.19 to 200 nM in medium) were added to MCF7 cells in 96-well plates for one hour. IGF-I (10 ng/ml) or IGF-11 (50 ng/ml) was subsequently added and incubated for ten minutes. The cells were lysed, and the resulting lysates were transferred to an ELISA plate, which was coated with IGF-1R-capturing antibody 3B7 (250 ng/well). After incubation for two hours, the cell lysate was removed, and the plates were washed. Phosphotyrosine-specific antibody 4G10 (Upstate, Charlottesville, Va., USA) was added to detect IGF-1R phosphorylation through TMB peroxidase substrate.

[6] = molecular target: murine IGF-1R-ECD (murine) (UniProt Q60751); test: BIACORE surface plasmon resonance: IGF-1R immobilized on CM5 chip (about 500 RU), Fab injected 500-3.1 nM, 25 C, 1:1 Langmuir model
[7] = molecular target: human IGF-1R-ECD (secreted recombinant extracellular domain, amino acids 1-902, tagged with 10 or 12 histidine residues at the carboxyl terminus) (human) (UniProt P08069); test: as above

cynomolgus-monkey IGF-1R, sequence (G7P9I7 entry or part of it): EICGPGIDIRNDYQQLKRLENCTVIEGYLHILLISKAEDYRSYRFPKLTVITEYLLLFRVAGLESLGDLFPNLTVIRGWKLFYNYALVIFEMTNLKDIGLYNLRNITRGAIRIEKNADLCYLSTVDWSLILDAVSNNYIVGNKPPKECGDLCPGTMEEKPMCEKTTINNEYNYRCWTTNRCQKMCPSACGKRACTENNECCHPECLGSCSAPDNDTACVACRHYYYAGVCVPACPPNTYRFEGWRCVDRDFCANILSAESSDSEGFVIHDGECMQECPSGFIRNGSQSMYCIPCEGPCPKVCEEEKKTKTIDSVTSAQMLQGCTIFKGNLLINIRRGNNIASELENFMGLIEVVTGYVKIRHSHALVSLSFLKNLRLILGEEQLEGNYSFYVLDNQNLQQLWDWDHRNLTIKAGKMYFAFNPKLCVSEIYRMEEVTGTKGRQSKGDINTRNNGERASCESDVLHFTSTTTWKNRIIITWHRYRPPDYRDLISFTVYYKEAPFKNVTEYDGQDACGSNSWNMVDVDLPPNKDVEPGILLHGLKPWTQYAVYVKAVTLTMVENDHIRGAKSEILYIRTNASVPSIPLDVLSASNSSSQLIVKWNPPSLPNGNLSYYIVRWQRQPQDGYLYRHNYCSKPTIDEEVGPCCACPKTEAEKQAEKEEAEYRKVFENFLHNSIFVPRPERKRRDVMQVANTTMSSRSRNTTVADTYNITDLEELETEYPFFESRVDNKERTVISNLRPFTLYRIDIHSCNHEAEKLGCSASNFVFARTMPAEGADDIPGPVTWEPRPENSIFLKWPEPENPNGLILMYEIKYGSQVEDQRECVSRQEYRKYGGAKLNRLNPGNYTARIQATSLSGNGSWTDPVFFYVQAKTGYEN

IR3, commercial anti-IGF-1R antibody was tested, and the IC50 (read off the curve) [1] was 5 nM, the IC50 (read off the curve) [2] was 5 µg/mL and the IC50 (read off the curve) [3] was 8 µg/mL.

For `CC(=O)O[C@@]12CO[C@@H]1C[C@H](O)[C@@]1(C)C(=O)[C@H](O)C3=C(C)[C@@H](OC(=O)[C@H](O)[C@@H](NC(=O)OC(C)(C)C)c4ccccc4)C[C@@](O)([C@@H](OC(=O)c4ccccc4)[C@H]21)C3(C)C` [docetaxel], the “TGI on Day 14” value (SW527 xenograft tumors; Example 5, h10H5 5 mg/kg weekly IP, docetaxel 12.5 mg/kg IV Days 0, 4, 8, B20-4.1 10 mg/kg weekly IP) was 54% and the “body weight losses leading to euthanasia” value (SW527 xenograft tumors; single-agent docetaxel 12.5 mg/kg, two mice Day 8, two mice Day 12) was over 20%.

B1: chimeric 10H5-IgG (antibody, V domains shown)
VH: QVQLQQPGAELVKPGASVTLSCKASGYTFTRFWIHWVKQRPGQGLEWIGEINPSNGRTNYNENFKNKATLTVDTSSSTAYMQLSSLTSEVSVVYYCARGGRLDQWGQGTT
VL: DIVMTQSQKFMSTSLGDRVSVTCKASQNVGSNVAWYQQKPGQSPEALIYSASYRYSGVPDRFTGSGSGTDFTLTISNVQSEDLAEYFCHQYNNYPYTFGGGTKVEIKR
notes: also called human chimeric 10H5
B1 was tested, and the Kd (cynomolgus-monkey IGF-1R) was 0.13 nM and the Kd [4] was 0.1 nM.

B2: chimeric 9F2-IgG (antibody, V domains shown)
VH: QIQLVQSGPELKKPGETVKISCKASGYTLANYGMNWVKQAPGKGFKWMGWINTNTGKPTYSDEFKGRFVFSLETSASTAYLLINNLSNEDTATYFCARSIYYYGSRYFNVWGAGTT
VL: DIQMTQSTSSLSASLGDRVTISCRASQDINNYLTWYQQKPDGTVKLLIYYTSRLHSGVPSRFSGSGSGTDYSLTITNLEQEDFATYFCQQGNTLPWTFGEGTKVEIKR
notes: also called human chimeric 9F2
B2 gave a Kd (cynomolgus-monkey IGF-1R) of 0.17 nM.

B3: 2B4: mouse monoclonal anti-IGF-1R antibody from hybridoma 2B4.2.8, ATCC PTA-7009 (antibody, V domains shown)
VH: QIQLVQSGPELKKPGETVKISCKASGYNLANYGLNWVKQAPGEGLKWMGWINTNTGAPTYAEEFKGRFVFFLETSASTAYLQINNLSDEDTATYFCARSIYYYASRYFNVWGAGTS
VL: B2 VL with S7T, R18K, N30S, T34N, V44I, V58I, T76S, F83I, E100G
For B3, the “inhibition of IGF-I or IGF-II binding to IGF-1R” value (human IGF-1R-ECD) was “most potent group”, the “inhibition of IGF-I-mediated AKT activation” value ([5]; serum-starved MCF7, IGF-I 50 ng/ml) was “potently prevented AKT activation” and the “inhibition of IGF-II-mediated IGF-1R phosphorylation and downstream AKT and MAPK1/2 activation” value ([5]; serum-starved MCF7, IGF-II 100 ng/ml) was “remained as strong inhibitors”. The “inhibition of IGF-I/II-mediated IGF-1R phosphorylation (KIRA)” value (IGF-1R) was “most effective group”.

B4: YW95.6 (Fab, V domains shown)
VH: EVQLVESGGGLVQPGGSLRLSCAASGFTFSSYAMSWVRQAPGKGLEWVSRISPSGGSTYYADSVKGRFTISADTSKNTAYLQMNSLRAEDTAVYYCAREEYYYWGAMDVWGQGTLVTVSS
VL: DIQMTQSPSSLSASVGDRVTITCRASQSISSYLAWYQQKPGKAPKLLIYGASSRASGVPSRFSGSGSGTDFTLTISSLQPEDFATYYCQQYYSSPLTFGQGTKVEIK
B4 gave a Kd [6] of 8.6 nM and a Kd [7] of 7.3 nM.
